US20200239562A1 (ANAPTYSBIO, published 2020)

Molecular target: T1, human IL-33 (human, UniProt O95760 112-270, limits assumed)
T1 construct: also called Interleukin-33
T1 sequence (looked up): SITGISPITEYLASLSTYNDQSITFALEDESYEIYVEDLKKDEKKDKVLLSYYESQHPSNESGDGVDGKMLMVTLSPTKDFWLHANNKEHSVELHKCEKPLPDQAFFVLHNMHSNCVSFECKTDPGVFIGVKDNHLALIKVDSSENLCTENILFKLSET
Assay: method not stated

Kd: ~1 pM
B1: ANB020 (antibody, V domains shown)
VH: QVQLMQSGAEVKKPGASVKVSCKASGYTFTSYWMHWVRQAPGQGLEWMGTIYPRNSNTDYNQKFKARVTMTRDTSTSTVYMELSSLRSEDTAVYYCARPLYYYLTSPPTLFWGQGTLVTVSS
VL: DIQLTQSPSFLSASVGDRVTLTCKASQDVGTAVAWTQQKPGKAPKLLIYWASTRHTGVPSRFSGSGSGTEFTLTISSLQPEDFATYYCQQAKTYPFTFGSGTKLEIK
